Assay results as given in IntAct's records for PubMed 31515488.

B1: Proteasome subunit beta type-1 (Homo sapiens), P20618 (parent)
chain: MLSSTAMYSAPGRDLGMEPHRAAGPLQLRFSPYVFNGGTILAIAGEDFAIVASDTRLSEGFSIHTRDSPKCYKLTDKTVIGCSGFHGDCLTLTKIIEARLKMYKHSNNKAMTTGAIAAMLSTILYSRRFFPYYVYNIIGGLDEEGKGAVYSFDPVGSYQRDSFKAGGSASAMLQPLLDNQVGFKNMQNVEHVPLSLDRAMRLVKDVFISAAERDVYTGDALRICIVTKEGIREETVSLRKD
partner: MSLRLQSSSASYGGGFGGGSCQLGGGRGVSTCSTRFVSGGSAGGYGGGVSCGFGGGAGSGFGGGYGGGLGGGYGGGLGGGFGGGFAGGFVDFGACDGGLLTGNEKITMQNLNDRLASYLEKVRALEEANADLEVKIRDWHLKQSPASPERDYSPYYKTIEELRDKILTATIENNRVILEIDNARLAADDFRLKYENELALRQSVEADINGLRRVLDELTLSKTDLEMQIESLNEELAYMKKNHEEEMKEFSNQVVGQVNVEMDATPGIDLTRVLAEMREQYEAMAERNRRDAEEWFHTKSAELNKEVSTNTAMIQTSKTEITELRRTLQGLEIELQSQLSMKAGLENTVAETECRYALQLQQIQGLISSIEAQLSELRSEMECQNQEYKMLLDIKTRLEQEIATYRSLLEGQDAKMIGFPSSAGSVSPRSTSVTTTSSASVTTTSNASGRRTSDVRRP
B2: DNA repair and recombination protein RAD54B (Homo sapiens), Q9Y620 (parent)
chain: MRRSAAPSQLQGNSFKKPKFIPPGRSNPGLNEEITKLNPDIKLFEGVAINNTFLPSQNDLRICSLNLPSEESTREINNRDNCSGKYCFEAPTLATLDPPHTVHSAPKEVAVSKEQEEKSDSLVKYFSVVWCKPSKKKHKKWEGDAVLIVKGKSFILKNLEGKDIGRGIGYKFKELEKIEEGQTLMICGKEIEVMGVISPDDFSSGRCFQLGGGSTAISHSSQVARKCFSNPFKSVCKPSSKENRQNDFQNCKPRHDPYTPNSLVMPRPDKNHQWVFNKNCFPLVDVVIDPYLVYHLRPHQKEGIIFLYECVMGMRMNGRCGAILADEMGLGKTLQCISLIWTLQCQGPYGGKPVIKKTLIVTPGSLVNNWKKEFQKWLGSERIKIFTVDQDHKVEEFIKSIFYSVLIISYEMLLRSLDQIKNIKFDLLICDEGHRLKNSAIKTTTALISLSCEKRIILTGTPIQNDLQEFFALIDFVNPGILGSLSSYRKIYEEPIILSREPSASEEEKELGERRAAELTCLTGLFILRRTQEIINKYLPPKIENVVFCRPGALQIELYRKLLNSQVVRFCLQGLLENSPHLICIGALKKLCNHPCLLFNSIKEKECSSTCDKNEEKSLYKGLLSVFPADYNPLLFTEKESGKLQVLSKLLAVIHELRPTEKVVLVSNYTQTLNILQEVCKRHGYAYTRLDGQTPISQRQQIVDGFNSQHSSFFIFLLSSKAGGVGLNLIGGSHLILYDIDWNPATDIQAMSRVWRDGQKYPVHIYRLLTTGTIEEKIYQRQISKQGLCGAVVDLTKTSEHIQFSVEELKNLFTLHESSDCVTHDLLDCECTGEEVHTGDSLEKFIVSRDCQLGPHHQKSNSLKPLSMSQLKQWKHFSGDHLNLTDPFLERITENVSFIFQNITTQATGT
partner: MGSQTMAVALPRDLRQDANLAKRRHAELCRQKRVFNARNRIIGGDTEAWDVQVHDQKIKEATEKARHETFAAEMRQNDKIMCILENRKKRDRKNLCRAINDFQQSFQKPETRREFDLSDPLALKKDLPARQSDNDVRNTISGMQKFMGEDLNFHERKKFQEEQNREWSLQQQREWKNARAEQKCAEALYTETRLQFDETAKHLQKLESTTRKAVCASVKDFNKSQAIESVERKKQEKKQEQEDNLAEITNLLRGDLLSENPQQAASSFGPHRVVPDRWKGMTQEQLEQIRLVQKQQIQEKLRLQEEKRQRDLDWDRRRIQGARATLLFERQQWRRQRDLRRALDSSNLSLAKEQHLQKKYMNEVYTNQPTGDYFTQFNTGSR
B3: Alpha-taxilin (Homo sapiens), P40222 (parent)
chain: MKNQDKKNGAAKQSNPKSSPGQPEAGPEGAQERPSQAAPAVEAEGPGSSQAPRKPEGAQARTAQSGALRDVSEELSRQLEDILSTYCVDNNQGGPGEDGAQGEPAEPEDAEKSRTYVARNGEPEPTPVVNGEKEPSKGDPNTEEIRQSDEVGDRDHRRPQEKKKAKGLGKEITLLMQTLNTLSTPEEKLAALCKKYAELLEEHRNSQKQMKLLQKKQSQLVQEKDHLRGEHSKAVLARSKLESLCRELQRHNRSLKEEGVQRAREEEEKRKEVTSHFQVTLNDIQLQMEQHNERNSKLRQENMELAERLKKLIEQYELREEHIDKVFKHKDLQQQLVDAKLQQAQEMLKEAEERHQREKDFLLKEAVESQRMCELMKQQETHLKQQLALYTEKFEEFQNTLSKSSEVFTTFKQEMEKMTKKIKKLEKETTMYRSRWESSNKALLEMAEEKTVRDKELEGLQVKIQRLEKLCRALQTERNDLNKRVQDLSAGGQGSLTDSGPERRPEGPGAQAPSSPRVTEAPCYPGAPSTEASGQTGPQEPTSARA
partner: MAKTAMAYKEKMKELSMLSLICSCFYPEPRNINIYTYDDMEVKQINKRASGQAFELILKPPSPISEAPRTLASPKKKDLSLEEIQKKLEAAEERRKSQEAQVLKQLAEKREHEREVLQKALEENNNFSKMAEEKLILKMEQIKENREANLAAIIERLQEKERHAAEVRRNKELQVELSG
B4: Tuftelin-interacting protein 11 (Homo sapiens), Q9UBB9 (parent)
chain: MSLSHLYRDGEGRIDDDDDERENFEITDWDLQNEFNPNRQRHWQTKEEATYGVWAERDSDDERPSFGGKRARDYSAPVNFISAGLKKGAAEEAELEDSDDEEKPVKQDDFPKDFGPRKLKTGGNFKPSQKGFAGGTKSFMDFGSWERHTKGIGQKLLQKMGYVPGRGLGKNAQGIINPIEAKQRKGKGAVGAYGSERTTQSMQDFPVVDSEEEAEEEFQKELSQWRKDPSGSKKKPKYSYKTVEELKAKGRISKKLTAPQKELSQVKVIDMTGREQKVYYSYSQISHKHNVPDDGLPLQSQQLPQSGKEAKAPGFALPELEHNLQLLIDLTEQEIIQNDRQLQYERDMVVNLFHELEKMTEVLDHEERVISNLSKVLEMVEECERRMQPDCSNPLTLDECARIFETLQDKYYEEYRMSDRVDLAVAIVYPLMKEYFKEWDPLKDCTYGTEIISKWKSLLENDQLLSHGGQDLSADAFHRLIWEVWMPFVRNIVTQWQPRNCDPMVDFLDSWVHIIPVWILDNILDQLIFPKLQKEVENWNPLTDTVPIHSWIHPWLPLMQARLEPLYSPIRSKLSSALQKWHPSDSSAKLILQPWKDVFTPGSWEAFMVKNIVPKLGMCLGELVINPHQQHMDAFYWVIDWEGMISVSSLVGLLEKHFFPKWLQVLCSWLSNSPNYEEITKWYLGWKSMFSDQVLAHPSVKDKFNEALDIMNRAVSSNVGAYMQPGARENIAYLTHTERRKDFQYEAMQERREAENMAQRGIGVAASSVPMNFKDLIETKAEEHNIVFMPVIGKRHEGKQLYTFGRIVIYIDRGVVFVQGEKTWVPTSLQSLIDMAK
partner: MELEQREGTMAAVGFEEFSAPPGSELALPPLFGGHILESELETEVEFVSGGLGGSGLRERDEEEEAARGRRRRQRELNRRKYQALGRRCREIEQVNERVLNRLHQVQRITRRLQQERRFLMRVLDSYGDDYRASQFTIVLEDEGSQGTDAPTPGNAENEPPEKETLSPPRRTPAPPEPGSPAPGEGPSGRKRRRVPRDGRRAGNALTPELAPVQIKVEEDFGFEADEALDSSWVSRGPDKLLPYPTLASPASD
B5: Geminin (Homo sapiens), O75496 (parent)
chain: MNPSMKQKQEEIKENIKNSSVPRRTLKMIQPSASGSLVGRENELSAGLSKRKHRNDHLTSTTSSPGVIVPESSENKNLGGVTQESFDLMIKENPSSQYWKEVAEKRRKALYEALKENEKLHKEIEQKDNEIARLKKENKELAEVAEHVQYMAELIERLNGEPLDNFESLDNQEFDSEEETVEDSLVEDSEIGTCAEGTVSSSTDAKPCI
B6: Protein LDOC1 (Homo sapiens), O95751 (parent)
chain: MVDELVLLLHALLMRHRALSIENSQLMEQLRLLVCERASLLRQVRPPSCPVPFPETFNGESSRLPEFIVQTASYMLVNENRFCNDAMKVAFLISLLTGEAEEWVVPYIEMDSPILGDYRAFLDEMKQCFGWDDDEDDDDEEEEDDY
partner: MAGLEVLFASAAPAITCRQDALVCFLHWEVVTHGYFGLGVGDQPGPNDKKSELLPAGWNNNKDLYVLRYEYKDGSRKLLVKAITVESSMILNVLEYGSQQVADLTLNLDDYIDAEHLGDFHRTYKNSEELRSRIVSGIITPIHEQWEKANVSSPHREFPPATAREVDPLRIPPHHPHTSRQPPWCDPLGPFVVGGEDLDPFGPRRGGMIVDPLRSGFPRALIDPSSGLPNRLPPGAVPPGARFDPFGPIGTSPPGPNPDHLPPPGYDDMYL
B7: Tuftelin-interacting protein 11 (Homo sapiens), Q9UBB9 (parent)
chain: B4 chain
partner: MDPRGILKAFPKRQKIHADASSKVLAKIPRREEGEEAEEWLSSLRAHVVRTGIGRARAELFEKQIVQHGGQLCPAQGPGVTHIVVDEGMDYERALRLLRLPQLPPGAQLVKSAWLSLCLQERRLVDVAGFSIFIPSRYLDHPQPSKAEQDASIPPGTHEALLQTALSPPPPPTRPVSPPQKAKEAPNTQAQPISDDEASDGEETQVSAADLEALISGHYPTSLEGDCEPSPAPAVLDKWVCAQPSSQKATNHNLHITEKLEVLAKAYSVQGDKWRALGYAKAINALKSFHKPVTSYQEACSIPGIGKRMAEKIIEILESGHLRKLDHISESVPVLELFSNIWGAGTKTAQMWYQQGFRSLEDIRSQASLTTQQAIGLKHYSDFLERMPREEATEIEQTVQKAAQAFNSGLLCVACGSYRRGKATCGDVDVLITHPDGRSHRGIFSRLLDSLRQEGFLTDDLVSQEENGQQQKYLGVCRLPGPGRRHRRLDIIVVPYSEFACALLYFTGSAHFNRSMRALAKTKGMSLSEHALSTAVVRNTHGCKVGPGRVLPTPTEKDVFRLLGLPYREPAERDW

Variants of: B1
Conditions: with KRT13, P13646

| effect of a mutation on the interaction | Variant |
| --- | --- |
| with no effect | P11A |

Variants of: B2
Conditions: with ribc2_human RIBC2, Q9H4K1

| effect of a mutation on the interaction | Variant |
| --- | --- |
| with no effect | L30V |

Variants of: B3
Conditions: with stmn2_human STMN2, Q93045

| effect of a mutation on the interaction | Variant |
| --- | --- |
| with no effect | S514R |
| with no effect | P541S |

Variants of: B4
Conditions: with tfpt_human TFPT

| effect of a mutation on the interaction | Variant |
| --- | --- |
| with no effect | S688L |
| with no effect | R8Q |

Variants of: B5
Conditions: with zn439_human ZNF439, Q8NDP4
Sequence of zn439_human ZNF439, Q8NDP4 (Q8NDP4 whole entry): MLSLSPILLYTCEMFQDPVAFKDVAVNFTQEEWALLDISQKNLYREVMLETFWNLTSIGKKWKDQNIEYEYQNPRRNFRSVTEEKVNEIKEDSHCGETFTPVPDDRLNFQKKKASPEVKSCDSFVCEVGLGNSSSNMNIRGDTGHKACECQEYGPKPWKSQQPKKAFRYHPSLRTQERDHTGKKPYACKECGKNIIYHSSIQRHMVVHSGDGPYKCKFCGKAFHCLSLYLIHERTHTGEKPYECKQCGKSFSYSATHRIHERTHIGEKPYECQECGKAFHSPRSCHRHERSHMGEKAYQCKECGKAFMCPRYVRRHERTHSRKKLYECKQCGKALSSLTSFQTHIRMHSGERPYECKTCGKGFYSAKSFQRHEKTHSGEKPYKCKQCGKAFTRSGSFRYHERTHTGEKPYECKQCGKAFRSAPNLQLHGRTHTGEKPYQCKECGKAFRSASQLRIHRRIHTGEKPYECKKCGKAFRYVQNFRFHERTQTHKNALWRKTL

| effect of a mutation on the interaction | Variant |
| --- | --- |
| with no effect | E167D |
| with no effect | N15H |

Variants of: B6
Conditions: with psmf1_human PSMF1, Q92530

| effect of a mutation on the interaction | Variant |
| --- | --- |
| disrupting interaction strength | L12H |

Variants of: B7
Conditions: with dpoll_human POLL

| effect of a mutation on the interaction | Variant |
| --- | --- |
| with no effect | S688L |
| with no effect | R8Q |
